# Experimental data reported in patent publication US8975370B2, “Inhibitor proteins of a protease and use thereof” (Universite de Lausanne, priority 2003, dated 2015).
# Tested on: T1, Cc1cc(=O)oc2cc(NC(=O)[C@H](CCCNC(=N)N)NC(=O)[C@H](Cc3ccccc3)NC(=O)OCc3ccccc3)ccc12
# T1 construct: substrate Z-FR-AMC
# Experiment: Km of PK for its fluorogenic substrate (used for ka correction, eq 2)
# Assay type: biochemical, human
# Details: other: PK, substrate Z-FR-AMC, kinetics in 50 mM Tris pH 7.5, 150 mM NaCl, 0.05% Triton X-100, 0.01% BSA, 25° C.
# From the text: hK2 and hK3 (PSA) were purified from human semen as previously described (Frenette G, Gervais Y, Tremblay R R, Dube J Y. 1998 “Contamination of purified prostate-specific antigen preparations by kallikrein hK2” J Urol 159, 1375-8), anti-hK2 and anti-PSA monoclonal antibodies were a gift from Professor R R Tremblay, Laval University, Canada. Human chymotrypsin (Chtr), urokinase plasminogen activator (uPA), human kallikrein hK1, human plasma kallikrein (PK), human neutrophil elastase (HNE) and commercial ACT (human plasma α1-antichymotrypsin) were purchased from Calbiochem. […]
# The association rate constants for interactions of hK2, chymotrypsin, PK and HNE with different rACTs were determined under pseudo-first order conditions using the progress curve method (Morrison J F, Walsh C T. 1988 “The behavior and significance of slow-binding enzyme inhibitors” Adv. Enzymol. Relat. Areas Mol. Biol 61, 201-301). […] Each reaction was made in reaction buffer (50 mM Tris pH 7.5, 150 mM NaCl, 0.05% Triton X-100, 0.01% BSA) at 25° C. for 45 min and the rate of product formation was measured using a FLx800 fluorescence 96-well microplate reader (Biotek, USA). […]
# For each inhibitor, a kobs was calculated, for four different concentrations of inhibitors, by non linear regression of the data using equation 1. […]
# Chain of human plasma kallikrein (PK) (Homo sapiens) (chain, as listed by the source): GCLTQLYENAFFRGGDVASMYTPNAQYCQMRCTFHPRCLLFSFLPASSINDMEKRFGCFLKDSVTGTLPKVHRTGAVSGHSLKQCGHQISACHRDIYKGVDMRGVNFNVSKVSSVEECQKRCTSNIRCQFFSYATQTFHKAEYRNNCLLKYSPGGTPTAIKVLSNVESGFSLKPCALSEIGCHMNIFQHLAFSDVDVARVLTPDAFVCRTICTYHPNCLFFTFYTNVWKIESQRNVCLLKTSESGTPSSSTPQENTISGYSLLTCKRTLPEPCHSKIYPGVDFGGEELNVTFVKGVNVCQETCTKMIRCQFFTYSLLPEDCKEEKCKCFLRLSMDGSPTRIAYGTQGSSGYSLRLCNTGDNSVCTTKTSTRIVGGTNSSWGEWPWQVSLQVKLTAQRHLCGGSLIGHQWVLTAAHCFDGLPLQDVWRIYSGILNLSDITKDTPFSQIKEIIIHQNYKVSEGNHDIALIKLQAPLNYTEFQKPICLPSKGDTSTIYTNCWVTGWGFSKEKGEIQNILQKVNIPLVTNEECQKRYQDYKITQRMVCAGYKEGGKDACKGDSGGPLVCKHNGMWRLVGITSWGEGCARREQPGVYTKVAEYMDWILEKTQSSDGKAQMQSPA
substance,measurement,value
human plasma kallikrein (PK) (Homo sapiens),Km,170 µM
